In patent US20090074795A1, “Methods for addressing ocular diseases through interference with the wnt signaling pathway” (priority 2007, published 2009):

Legend:
[1] = tested on: Vldlr^−/− mice; test: Subretinal injection of purified mouse DKK1 in Vldlr−/− mice (β-catenin phosphorylation, VEGF in eyecup); assay type: in vivo
Description: To confirm the association of the wnt pathway activation with VEGF over-expression in Vldlr^−/− mice, 5 μg purified mouse DKK1, a specific inhibitor of the wnt signal pathway by binding with LRP5/6, were injected into the subretinal space of the Vldlr^−/− mice into one eye and the same amount of a control protein (BSA) into the contralateral eye. Twenty-four hours after the injection, β-catenin phosphorylation and VEGF levels in the eyecup were measured by western blot analysis.
(§1) Vldlr^−/− mice received a subretinal injection of 5 μg purified mouse DKK1 into the right eyes, and the same amount BSA into the left eyes. According to embodiments shown in FIG. 9A, The eyecups were dissected 24 h following the injection for the following analyses, phosphorylated β-catenin and VEGF levels were measured by Western blot analysis of a representative mouse eyecup using the anti-phosphorylated β-catenin and anti-VEGF antibodies, respectively. According to embodiments shown in FIG. 9B, VEGF protein levels in Vldlr^−/− eyecups were measured using ELISA. According to embodiments shown in FIG. 9C, VEGF mRNA levels in the Vldlr^−/− eyecups were measured using quantitative real-time RT-PCR. Values are mean±SD (n=4). According to embodiments shown in FIGS. 9D-9G, Vldlr^−/− mice were injected with 5 μg/eye BSA into the subretinal space of the left eye (FIGS. 9D and 9F) and the same amount of DKK1 into the right eye (FIGS. 9E and 9G). The ocular sections were immunostained with an anti-VEGF antibody (FIGS. 9D and 9E) and an anti-β-catenin antibody (FIGS. 9F and 9G). 400×. PRL, photoreceptor layer. According to embodiments shown in FIGS. 9H and 9I, HUVEC were transfected with the VLDLR siRNA. The transfected cells were treated with 10 μg/ml human DKK1or BSA. VEGF protein was measured in the culture medium by ELISA (FIG. 9H) and the VEGF mRNA measured in the cells by real-time RT-PCR, normalized by 18s RNA and expressed as arbitrary unit (mean±SD, n=3) (FIG. 9I), 24 hours after the addition of DKK1.
VEGF ELISA: The human VEGF QuantiGlo ELISA kit (R&D Systems, Inc., Minneapolis, Minn.) was used to measure VEGF levels in HUVEC and ARPE19 cells, and the mouse VEGF Quantikine ELISA kit (R&D Systems, Inc.) was used for mouse tissues following the manufacturer's protocol. The samples of the culture medium were concentrated 10 times, and the samples from mouse tissues were diluted 10 times to ensure that the VEGF concentration fell within the range of the VEGF standard curves.
Western Blot Analysis: The same amount (100 μg) of total proteins from mouse eyecups were used for Western blot analysis using specific primary antibodies for each protein and blotted with an horseradish peroxidase-conjugated secondary antibody. The signal was developed with a chemiluminescence detection kit (ECL; Amersham Biosciences). Blots were then stripped and re-blotted with an antibody specific for β-actin. Each protein band was semiquantified by densitometry and normalized by β-actin levels in the same gel.
Quantitative Real-time Reverse Transcription (RT)-PCR: Mice eyes were enucleated immediately after death into chilled diethylpyrocarbonate-treated normal saline, and the retinas were dissected. Total RNA was isolated using a commercial kit (Qiagen, Santa Clarita, Calif.). […] Fluorescence changes were monitored after each cycle. […] The average CT (threshold cycle) of fluorescence unit was used to analyze the mRNA levels. […]

[2] = tested on: HUVEC; test: DKK1 on VEGF over-expression in HUVEC transfected with VLDLR siRNA; assay type: cell-based; conditions: 10 μg/ml human DKK1, 24 hours, ELISA and RT-PCR, vs BSA
Description: The regulatory roles of VLDLR and the wnt pathway in VEGF expression in cultured endothelial cells was also investigated.
as §1, with “The ocular sections were immunostained with an anti-VEGF antibody (FIGS. 9D and 9E) and an anti-β-catenin antibody (FIGS. 9F and 9G). 400×. PRL, photoreceptor layer. According to embodiments shown in FIGS. 9H and 9I, HUVEC were transfected with the VLDLR siRNA. The transfected cells were treated with 10 μg/ml human DKK1or BSA.” left out, “DKK1. […]” for “DKK1.”

[3] = tested on: OIR rats; test: Retinal VEGF (western blot) after intravitreal DKK1 in OIR rats; assay type: in vivo, rat; conditions: 3 μg/eye intravitreal at P15, retinas at P18, western blot, vs BSA
Description: To determine the effect of the wnt pathway blockade of the VEGF expression induced by ischemia, DKK1 was injected into the vitreous of the OIR rats at P15. The rats were then maintained in normoxia for 3 days, and the VEGF expression in the retina was measured.
The same amount of BSA was injected as control. The same amount of total protein from each rat was used for western blot analysis using specific antibody for VEGF. Each lane represents an individual rat.
Intravitreal injection: All solutions will be sterilized by filtration and assessed for endotoxin. Animals will be anesthetized, and compounds will be injected into the vitreous of the one eye through the pars plana using a Hamilton syringe. The left eye will receive the same volume of vehicle and will be used as the control. Following injection, the animals will receive equal amounts of topical antibiotic ointment on both eyes. The animals will then be kept in normoxic conditions until the necessary time point for evaluation

[4] = 5 μg/eye subretinal, immunohistochemistry, vs BSA contralateral eye

B1: DKK1: Purified Dickkopf-1 protein (R&D System), specific inhibitor of the wnt pathway binding LRP5/6; mouse protein in mice, human in HUVEC (protein, UniProt O54908 32-272; O54908 32-272, looked up)
Dickkopf-related protein 1 1: TLNSVLINSNAIKNLPPPLGGAGGQPGSAVSVAPGVLYEGGNKYQTLDNYQPYPCAEDEECGSDEYCSSPSRGAAGVGGVQICLACRKRRKRCMRHAMCCPGNYCKNGICMPSDHSHFPRGEIEESIIENLGNDHNAAAGDGYPRRTTLTSKIYHTKGQEGSVCLRSSDCAAGLCCARHFWSKICKPVLKEGQVCTKHKRKGSHGLEIFQRCYCGEGLACRIQKDHHQASNSSRLHTCQRH
Dickkopf-related protein 1 2: TLNSVLINSNAIKNLPPPLGGAGGQPGSAVSVAPGVLYEGGNKYQTLDNYQPYPCAEDEECGSDEYCSSPSRGAAGVGGVQICLACRKRRKRCMRHAMCCPGNYCKNGICMPSDHSHFPRGEIEESIIENLGNDHNAAAGDGYPRRTTLTSKIYHTKGQEGSVCLRSSDCAAGLCCARHFWSKICKPVLKEGQVCTKHKRKGSHGLEIFQRCYCGEGLACRIQKDHHQASNSSRLHTCQRH
modifications: mouse protein in mice, human in HUVEC
- VEGF mRNA levels in Vldlr−/− eyecups ([1]; 5 μg subretinal, 24 h, real-time RT-PCR, vs BSA): significantly decreased
- phosphorylation of β-catenin in eyecup ([1]; 5 μg subretinal, 24 h, western blot, vs BSA contralateral eye): increased phosphorylation of β-catenin
- VEGF protein levels in Vldlr−/− eyecups ([1]; 5 μg subretinal, 24 h, western blot/ELISA, vs BSA): significantly decreased
- levels of VEGF in the RPE [1, 4]: significantly decreased
- levels of β-catenin in the RPE [1, 4]: significantly decreased
- VEGF over-expression induced by the VLDLR siRNA [2]: blocked the VEGF over-expression
- VEGF over-expression in the retina [3]: significantly blocked VEGF over-expression
